Assay results published in paper PMC13013135, “[^99mTc]Tc-PSMA-HSG for PSMA-targeted Hybrid Surgical Guidance: a new addition to the PSMA-I&S/I&T family” (European Journal of Nuclear Medicine and Molecular Imaging, 2025).

Assays:
PSMA = PSMA (Homo sapiens, UniProt Q04609); test: Radioguided surgery (RGS) with gamma probe, ex vivo fluorescence microscopy; assay type: in vivo; parameters: Five patients with a diagnosis of initial (n = 4) or biochemical recurrence of (n = 1) histologically proven prostate cancer; from tissue; host or cells: prostate cancer patients: primary tumour, lymph nodes, resected tissue sections
Chain of PSMA (Q04609 whole entry): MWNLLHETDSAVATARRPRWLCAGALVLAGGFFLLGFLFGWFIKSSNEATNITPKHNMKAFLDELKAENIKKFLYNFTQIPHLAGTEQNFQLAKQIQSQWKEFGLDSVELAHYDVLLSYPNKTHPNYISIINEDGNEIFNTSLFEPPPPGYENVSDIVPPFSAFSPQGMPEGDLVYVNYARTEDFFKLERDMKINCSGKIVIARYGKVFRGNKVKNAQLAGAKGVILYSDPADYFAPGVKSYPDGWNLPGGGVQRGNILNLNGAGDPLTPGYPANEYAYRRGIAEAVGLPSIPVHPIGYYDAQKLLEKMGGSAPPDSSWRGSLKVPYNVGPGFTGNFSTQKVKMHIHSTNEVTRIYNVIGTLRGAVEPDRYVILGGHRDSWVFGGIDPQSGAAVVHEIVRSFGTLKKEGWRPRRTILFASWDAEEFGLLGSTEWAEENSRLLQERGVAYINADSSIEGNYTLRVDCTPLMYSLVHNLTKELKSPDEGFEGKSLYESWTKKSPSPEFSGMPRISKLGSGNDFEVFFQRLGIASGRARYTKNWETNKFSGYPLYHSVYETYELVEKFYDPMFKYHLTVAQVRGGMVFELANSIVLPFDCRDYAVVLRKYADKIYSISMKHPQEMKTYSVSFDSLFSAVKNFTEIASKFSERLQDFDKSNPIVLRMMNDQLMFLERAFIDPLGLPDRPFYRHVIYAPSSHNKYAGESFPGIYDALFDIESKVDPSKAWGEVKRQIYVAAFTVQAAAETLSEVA
Procedure: Radioguided open surgery was performed the day after tracer injection by an experienced urologic surgeon (DW; more than 20 years of surgical experience) in collaboration with a nuclear medicine physician. Using a conventional gamma probe (C-Trak®, SanuC GmbH, Jahnsdorf, Germany), suspicious lymph nodes (defined as spots with signal-to-background ratios ≥ 2) were excised separately followed by pelvic lymph node dissection. […] Fresh frozen tissue sections were prepared using a standard cryosectioning protocol with 10–20 μm sections mounted for fluorescence imaging. These slides were stored on dry ice prior to fluorescence microscopy to preserve tissue integrity. Fluorescence microscopy of patient samples was performed using an Axioscan 7 slide scanner (Zeiss) equipped with a Colibri 7 LED light source and a 20×/0.8 NA Plan-Apochromat objective. Cy5 fluorescence was acquired using a filter set with excitation 640/30 nm, dichroic mirror 660 nm, and emission 690/50 nm. Image acquisition and analysis were performed using ZEN Blue 3.5 software (Zeiss). For immunohistochemical analysis, adjacent formalin-fixed, paraffin-embedded tissue sections were cut at 2 μm thickness and stained for PSMA (clone EP192 BioSB, BIOO Scientific) using a Ventana Benchmark automated platform (Bio SB, Santa Barbara, CA, USA). Conventional hematoxylin and eosin (H&E) and immunohistochemical (for PSMA) staining was performed on corresponding tissue sections to enable morphologic correlation and verification of target expression, respectively. For further information on immunhistochemical staining please refer to the Supplementary Material.

[1] = Lipophilicity, modified shake-flask method; assay type: physicochemical
Procedure: The lipophilicity of [^99mTc]Tc-PSMA-HSG was determined via a modified shake-flask method as described.

in vivo = details: mouse, in vivo
Procedure: The biodistribution of [^99mTc]Tc-PSMA-HSG and of the reference compound [^99mTc]Tc-PSMA-I&S was investigated in LNCaP xenograft bearing NSG mice (see supplemental information).
Mice were injected intravenously with the respective ^99mTc-labeled tracer (24–34 MBq (fixed peptide dose of 1 nmol/mouse) or 3.7–7.6 MBq (fixed peptide doses of 0.1 nmol/mouse), respectively) and were sacrificed at 2 h (1 nmol-cohort) or 6 h p.i. (0.1 nmol-cohort), respectively. The organs of interest were dissected, and the activity concentration in weighed tissue samples was quantified using an AMG Automatic Gamma Counter (Hidex, Turku, Finland). Biodistribution data are given in %iD/g and represent means ± SD (groups of n = 5 animals). Statistical analysis (Multiple unpaired t-test) of biodistribution data and tumor/organ ratios was performed using GraphPad Prism (Boston, USA).
To induce LNCaP tumor growth, a suspension of LNCaP cells (approx. 5 x 10^6 cells/mouse) in 200 μl of a 1:1 mixture of serum-free DMEM and Matrigel (BD Biosciences) was injected subcutaneously into the right shoulder of male NOD scid gamma (NSG) mice (6-8 weeks, in-house breeding, Dpt. of Oncology, University of Lausanne). After approximately 9 weeks, tumor size reached 4-8 mm in diameter and the mice were used for the in vivo studies.

human serum = test: Plasma protein binding (B50), ultrafiltration, human serum; assay type: in vitro ADME
Procedure: A detailed experimental procedure is provided in the Supplementary Material. […] Briefly, protein solutions (maximum concentration: […] Samples were briefly vortexed and incubated for 30 min at 37 °C. […] The filter units were then removed from the centrifugal tubes and washed twice with 300 µL PBS to recover the protein fraction. The activity in the filtrate, filter and protein fraction were then quantified using a γ-counter. […] The percentages of radioligand bound to the respective proteins are represented as means ± standard deviation (SD) of three independent experiments.

[2] = test system: LNCaP xenograft bearing NSG mice; test: Small animal SPECT/CT with 2-PMPA blocking; assay type: in vivo, mouse; details: 1 nmol peptide, 1 µmol 2-PMPA, SPECT/CT 2–4 h p.i.
Procedure: SPECT/CT images were acquired using an Albira Si PET/SPECT/CT (Bruker Biospin Corporation, Woodbridge, CT, USA) instrument. Mice were injected with the respective ^99mTc-labeled tracer (24–34 MBq; the injected peptide amount was kept constant at 1 nmol/animal), with (blocking) or without (control) coinjection of 226 µg (1 µmol) 2-PMPA. […] For SPECT imaging, static acquisitions of 2 h (accumulation of 1–2 × 10^6 events) were acquired with the following parameters: photopeak at 140 keV ± 30%, axial FOV 82.5 mm using a single pinhole collimator. For reconstruction, an ordered subset expectation-maximization algorithm (OSEM) with two iterations was used, and scatter correction was applied. For CT, the following parameters were used: 400 µA intensity and 35 kV voltage, 600 projections. Images were reconstructed using a filtered back-projection (FBP) algorithm with de-ringing correction. Fused representative SPECT/CT images were acquired using the PMOD software (PMOD technologies, version 3.709, Zurich, Switzerland).

[3] = exploratory cohort, five patients

SMILES: C[N+]1=C(/C=C/C=C/C=C2/N(CCCCCC(=O)NCCCC[C@@H](NC(=O)[C@@H](CO)NC(=O)[C@@H](CO)NC(=O)[C@@H](CO)NC(=O)CS)C(=O)N[C@H](Cc3ccc(O)cc3)C(=O)N[C@H](Cc3ccc4ccccc4c3)C(=O)N[C@H](CCCCNC(=O)CCCCCCC(=O)NCCCC[C@H](NC(=O)N[C@@H](CCC(=O)O)C(=O)O)C(=O)O)C(=O)O)c3ccc(S(=O)(=O)[O-])cc3C2(C)C)C(C)(C)c2cc(S(=O)(=O)O)ccc21 [[^99mTc]Tc-PSMA-HSG, metal not drawn]
- RGS, ex vivo activity, left external iliac LN (PSMA; Patient #1): 190 cps
- RGS, ex vivo activity, right external iliac LN (PSMA; Patient #1): 230 cps
- RGS, in vivo activity measurements (PSMA; Patient #1, 53 µg): intraoperative detection feasible; after resection no further tracer accumulation detected
- RGS, in and ex vivo activity measurements (PSMA; Patient #2, 53 µg): In and ex vivo activity measurements: No positive LN
- RGS, in and ex vivo activity measurements (PSMA; Patient #3, 53 µg): In and ex vivo activity measurements: No positive LN
- RGS, ex vivo activity, right iliac LN (2 adjacent LNs) (PSMA; Patient #4): 20 cps
- RGS, ex vivo activity, right iliac LN (first listed) (PSMA; Patient #4): 50 cps
- RGS, ex vivo activity, right iliac LN (last listed) (PSMA; Patient #4): 15 cps
- RGS, in vivo activity measurements (PSMA; Patient #4, 350 µg): No detection of tracer-positive lesions
- specificity of uptake in resected lymph nodes, fluorescence microscopy (PSMA; Patient #4, 350 µg): highly PSMA-specific
- RGS, in and ex vivo activity measurements (PSMA; Patient #5, 250 µg): In and ex vivo activity measurements: No positive LN
- NPV of RGS (PSMA; [3]): 100%
- PPV of RGS (PSMA; [3]): 100%
- sensitivity of RGS (abstract: selectivity) (PSMA; [3]): 100%
- specificity of RGS (PSMA; [3]): 100%
- lymph node metastases in tracer-avid lesions, intraoperative gamma detection (PSMA; in vivo): 6/6
- true negative lymph nodes identified by RGS (PSMA; patient sub-cohort): 53/53
- true positive lymph nodes identified by RGS (PSMA; patient sub-cohort): 4/4
- logD [1]: -2.94
- tissue uptake at 6 h (in vivo; male, NOD scid gamma (NSG), iv, 0.1 nmol/mouse, total radioactivity, biodistribution, liver): 2.5 ± 0.4 %ID/g
- tissue uptake at 6 h (in vivo; male, NOD scid gamma (NSG), iv, 0.1 nmol/mouse, total radioactivity, biodistribution, lung): 2.5 ± 0.5 %ID/g
- tissue uptake at 6 h (in vivo; male, NOD scid gamma (NSG), iv, 0.1 nmol/mouse, total radioactivity, biodistribution, pancreas): 0.8 ± 0.3 %ID/g
- tissue uptake at 6 h (in vivo; male, NOD scid gamma (NSG), iv, 0.1 nmol/mouse, total radioactivity, biodistribution, spleen): 9.7 ± 3.8 %ID/g
- tissue uptake at 6 h (in vivo; male, NOD scid gamma (NSG), iv, 0.1 nmol/mouse, total radioactivity, biodistribution, stomach): 1.1 ± 0.2 %ID/g
- tissue uptake at 2 h (in vivo; male, NOD scid gamma (NSG), iv, 1 nmol/mouse, total radioactivity, biodistribution, liver): 3.3 ± 0.3 %ID/g
- tissue uptake at 2 h (in vivo; male, NOD scid gamma (NSG), iv, 1 nmol/mouse, total radioactivity, biodistribution, lung): 2.8 ± 0.3 %ID/g
- tissue uptake at 2 h (in vivo; male, NOD scid gamma (NSG), iv, 1 nmol/mouse, total radioactivity, biodistribution, pancreas): 0.8 ± 0.1 %ID/g
- tissue uptake at 2 h (in vivo; male, NOD scid gamma (NSG), iv, 1 nmol/mouse, total radioactivity, biodistribution, spleen): 5.2 ± 1.9 %ID/g
- tissue uptake at 2 h (in vivo; male, NOD scid gamma (NSG), iv, 1 nmol/mouse, total radioactivity, biodistribution, stomach): 1.6 ± 0.1 %ID/g
- tissue to tissue ratio at 6 h (in vivo; male, NSG, iv, 0.1 nmol/mouse, total radioactivity): 0.12 ± 0.02
- tissue uptake at 6 h (in vivo; male, NSG, iv, 0.1 nmol/mouse, total radioactivity, biodistribution, LNCaP tumor): 19.8 ± 6.6 %ID/g
- tissue uptake at 6 h (in vivo; male, NSG, iv, 0.1 nmol/mouse, total radioactivity, biodistribution, blood): 1.3 ± 0.3 %ID/g
- tissue uptake at 6 h (in vivo; male, NSG, iv, 0.1 nmol/mouse, total radioactivity, biodistribution, heart): 0.7 ± 0.2 %ID/g
- tissue uptake at 6 h (in vivo; male, NSG, iv, 0.1 nmol/mouse, total radioactivity, biodistribution, intestines): 1.3 ± 0.2 %ID/g
- tissue uptake at 6 h (in vivo; male, NSG, iv, 0.1 nmol/mouse, total radioactivity, biodistribution, kidneys): 148 ± 17 %ID/g
- tissue uptake at 6 h (in vivo; male, NSG, iv, 0.1 nmol/mouse, total radioactivity, biodistribution, muscle): 0.4 ± 0.06 %ID/g
- tissue uptake at 6 h (in vivo; male, NSG, iv, 0.1 nmol/mouse, total radioactivity, biodistribution, salivary glands): 4 ± 1.2 %ID/g
- tissue to tissue ratio at 2 h (in vivo; male, NSG, iv, 1 nmol/mouse, total radioactivity): 0.2 ± 0.03
- tissue uptake at 2 h (in vivo; male, NSG, iv, 1 nmol/mouse, total radioactivity, biodistribution, LNCaP tumor): 12.1 ± 0.9 %ID/g
- tissue uptake at 2 h (in vivo; male, NSG, iv, 1 nmol/mouse, total radioactivity, biodistribution, blood): 2.4 ± 0.3 %ID/g
- tissue uptake at 2 h (in vivo; male, NSG, iv, 1 nmol/mouse, total radioactivity, biodistribution, heart): 1.3 ± 0.2 %ID/g
- tissue uptake at 2 h (in vivo; male, NSG, iv, 1 nmol/mouse, total radioactivity, biodistribution, intestines): 1 ± 0.1 %ID/g
- tissue uptake at 2 h (in vivo; male, NSG, iv, 1 nmol/mouse, total radioactivity, biodistribution, kidneys): 61.7 ± 7.2 %ID/g
- tissue uptake at 2 h (in vivo; male, NSG, iv, 1 nmol/mouse, total radioactivity, biodistribution, muscle): 0.5 ± 0.04 %ID/g
- tissue uptake at 2 h (in vivo; male, NSG, iv, 1 nmol/mouse, total radioactivity, biodistribution, salivary glands): 4.2 ± 0.5 %ID/g
- tissue uptake at 6 h (in vivo; Tumor uptake in mice): 11.8 ± 1.5 %ID/g
- B50 HS (human serum): 220 ± 35
- PSMA-specificity of tumor uptake, coinjection of 2-PMPA [2]: successfully blocked tumor accumulation
